A short description of this data set: yeast display, Sf9 membrane polyspecificity reagent, FACS + sequencing; frameworks hold sequencing errors. A digest of the protocol: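 Galactose induction of a Saccharomyces cerevisiae BJ5465 synthetic nanobody display library ran 36–48 hours. The cells were then stained for 1 hour at 4 °C with 10% biotinylated, detergent-solubilized Sf9 membrane reagent, pulled down on streptavidin microbeads and FACS-sorted into low and high (top ~1%) gates on expression and reagent-binding fluorescence. Labels for polyreactivity follow the gate of origin.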
Regarding “QVQLVESGGGLVQAGGSLRLSCAASGLNFRKYAMGWYRQAPGKERELVAGISSGGSTYYADSVKGRFTISRDNAKNTVYLQMNSLKPEDTAVYYCAAKALRTMYYWGQGTQVTVSS”, the “polyreactivity (PSR sort gate)” value is reported as “high polyreactivity”. With “QVQLVESGGGLVQAGGSLRLSCAASGRILSYNAMGCYRQAPGKERELVAGISWSGGSTYYADSVKGRFTISRDNAKNTVYLQMNSLKPEDTAVYYCNKLQGLTWYNSPYGYWGQGTQVTVSS” the entry was “high polyreactivity”; with “QVQLLESGGGLVQAGGTLRLSCAASGYTFTNNAMGWYRQAPGKERELVAGITRGGSTNYADSVKGRFTISRDNAKNTVSLQMNSLKPEDTAVYYWAADLRPNSQNGLLEDEMDYWGQGTQVTVSS”, “low polyreactivity”. With “QVQLVESGGGLVQAGGSLRLSCAASGRIFNFYAMGWYRQAPGKERELVASITGSTGSTYYADSVKGRFTISRDNAKNTVYLQMNSLKPEDTAVYYCNTYRVTRDYYWGQGTQVTVSS” the entry was “low polyreactivity”. As for “QVQLVESGGGLFQAGGSLRLSCAASGFIFTRYAMGWYRQAPGKERELVAAISWSGGSTYYADSVKGRFTISRDNAKNTVYLQMNSLKPEDTAVYYCAADGSDSYDYWGQGTQVTVSS”, the “polyreactivity (PSR sort gate)” value is listed as “low polyreactivity”. As for “QVQLVESGGGLVQAGGSLRVSCAASGFIFRRYAMGWYRQAPGKERELVAAIRTNSGSTYYADSVKGRFTISRDNAKNTVYLQMNSLKPEDTAVYYCATGQVYRTVSWLYNYWGQGTQVTVSS”, the “polyreactivity (PSR sort gate)” value is recorded as “high polyreactivity”.

On to “QDQHVQSGVGIVQAVGSLRLSCAASGFTIPSYAMGWYRMAPGKEREFVAAISWNSGSTYYADSVKGRFTISRDNAKNTVYLQMNSLKPEDTAVYYCNAGAYVRRRYAPGYSFEYDSWGQGTQVTVSS”, for which the “polyreactivity (PSR sort gate)” value is given as “high polyreactivity”. With “QVQLVESGGGLVQAGGSLRLSCAASGYIFPEYVMGWYRQAPGKERELVAVITWDGTSTYADSVKGRFTISRDNAKNTVYLQMNSLKPEDTAVYYCAADTNYYVDTAGYGDGLDSWGQGTQVTVSS” the entry was “low polyreactivity”; with “QVQLVESGGGLVQAGGSLRLSCAASGSTFDYYAMGRYRQAPGKERELVAAITTGGRTYYADSVKGRFTISRDNAKNTVYLQMNSLKPEDTAVYYCRERDYWGQGTQVTVSS”, “low polyreactivity”; with “QVQLVESGGGLVQAGGSLRLSCAASGIIFASNAMGWYRQAPGKERELVAAISGSGGRTYYADSVKGRFTISRDTAKNTVYLQMNSLKPEDTAVYYCAAARANNYDYWGQGTQVTVSS”, “high polyreactivity”.

For “QVQLVESGGGLVQAGVSLRLSCAASGFIFSFNAMGWYRQAPGKERELVAAISRSGGSTRYADSVKGRFTISRDNAKNTVYLQMNCLKPEDTAVYYCNARSPYYSYLLHAYRLFDYWGQGTQVTVSS”, the “polyreactivity (PSR sort gate)” value is reported as “high polyreactivity”.

On to “QVQLVESGGGLVQAGGSLRLSCAASGFTFRYYAMGWYRQAPGKERELVAAISWRGGRTYYADSVKGRFTISRDNAKNTVYIQMNSLKPEDTAVYYCAALRERQTRGNYWGQGTQVTVSS”, for which the “polyreactivity (PSR sort gate)” value is listed as “high polyreactivity”. In the case of “QVQLVESGVGLVQAGGSLRLSCAASGSTFYKYTMGWYRQAPGKESELVSAISRSGGRTYYADSVKGRFTISRDNAKNTVYLQMNSLKPEDTAVYYCAVVTPRYYGDTKYDYWGQGTQVTVSS” it was “high polyreactivity”; in that of “QVQLVESGGGLVQAGGSLRLSCAASGRTFSYYAMGWYRQAPGKERELVAAIYRAGRTNYADSVKGRFTISRDNAKNNVYLQMHSLKPEDTAVYYCAADLAYGRPFVSYRTRACGQGTQVTVSS”, “high polyreactivity”; in that of “QVQLVESGGGLVQAGGSLRLSCAASGSTFSTNAMGWYRPAPGKERELVAAISRSGGSTYYADSVKGRFTHSRDNEKNTVYLHMNSLKPEDTAVYYCARVSGYRYDYWGQGTQVTVSS”, “high polyreactivity”. Take “QVQLVESGGGLVQAGGSLRLSCAASGRIFYGNAMGWYRQAPGKERELVATISSSGGRTTYADSVKGRFTISRDNAKNTVYLQMNSLKPEDTAVYYCNARYRTRSLKYYYWGQGTQVTVSS”: the “polyreactivity (PSR sort gate)” value is reported as “high polyreactivity”. In the case of “QVQLVESGGGLVQAGGSLRLSCAASGSIFDDYAMGWYRQAPGKERELVAAITSGGSTYYADSVKGRFTISLDNAKNTVYLQMNSLKPEDTAVYYRATRYHWSSSFAPVGAYGYWGQATQVTVSS” it was “low polyreactivity”; in that of “QVQLVESGGGLVQAGGSLRLSCAASGFTLEFYAMGWYRQAPGKERELVAAISKSGGSTYYADSVKGRFTISRDNAKNTVYLQMNSLKPEDTAVYYCAKVNSYGPVPDRYDYWGQGTQVTVSS”, “high polyreactivity”. With “QVQLVESGGGLVQAGGSLRLSCAASGRIFDYYTMGWYRQAPGKERELVAAITWIGGSTYYADSVKGRFTISRDNAKNTVYLQMKSLKPEETAVYYCYAEGTALPYRADTVGGYYYWGQGTQVTVSS” the entry was “low polyreactivity”; with “QVQLVESGGGLVQAGGRLRLSCAASGIIFYVYTMGWSRQAPGKERELVAAISGSGGSTTYADSVKGRFTISRDNAKNTVYLQMNSLKPEDTAVYYCNAKKWFYRWWKFSEFDYWGQGTQVTVSS”, “high polyreactivity”.

“QVQLVESGGCLVQAGGSLRLSCAASGSIFEYYAMAWSRQAPGKERELVAAINSGDITKYADSVKGRFTISRDNAKNTVYLQMNSLKPEDTAVYYCAKRLSSREYYWGQGSQVTVSS”: the “polyreactivity (PSR sort gate)” value is given as “high polyreactivity”.

As to “QVQLVESGGGLVQAGGSLRLSCADSGITFWTNTMGWYRQAPGKERELVAVITSGGTTNYADSVKGRFTISRDNAKNTVYLQMNSLKPEDTAVYYCAKKYGYFGLHGYWGQGTQVTVSS”, the “polyreactivity (PSR sort gate)” value is on record as “high polyreactivity”.

For the sequence “QVQLVESGGGLVQAGGSLRLSCAASGRIFQPNAMGWYRQAPGKERELVAAISSSGGRTYYADSVKGRFTISRDNAKNTVYLQMNSLKPEDSAVYYCNAGGYRYRSYDYWGQGTQVTVSS”, the “polyreactivity (PSR sort gate)” value was “high polyreactivity”. For “QVQLVESGGGLVQAGGSLRLSCAASGFNFRANGMGWYRQAPGKERELVATITSGGTTNYADSVKGRFTITRDNAKNTVYLQMNSLKPEDTAVYYCAKRFVQAYFRLYDYWGQGTQVNVSS”, the “polyreactivity (PSR sort gate)” value is “low polyreactivity”. In the case of “QVQLVESGGGLVQAGGSLRLSCAASGSIFYHNAMGWYRQAPGKERELVAAITWSGSTTYYADSVKGRFTISRDYAKNTVYLQMNSLKPEDTAVYYCNAGNRHGHYDYYWGQCTQVTVSS” it was “low polyreactivity”; in that of “QVQLVESGGGLVKAGGSLRLSCAASGRIFTANAMGWYRQAPGKEREFVAAITTSDGTYYADSVKGRFTISRDNAKNTVYLQMNSLKPEDTAVYYGATDTATYPTAMDYWGQGTQVTVSS”, “low polyreactivity”; in that of “QVQLVESGGGLVQAGGSLRLSCAASGFTIRYYAMGWYRQAPGKERELVAAIRFSGGSTYYADSVKGRFTISRDNAKNTVYLQMNSLKPEDTAVYYCNARRRYGLDLGTFGYWGQGTQVTVSS”, “high polyreactivity”. In the case of “QVQLVESGGGFVQAGCSLRLSCAASGSIFLYNAMGWYRQAPGNDRELVATISYIGGRTYYADSVKGRFSISRDKAKNTVYSQMNSLKPEDTAVYYCAAEYYVISSPSFYEYDYWGQGTQVTVSS” it was “low polyreactivity”; in that of “QVQLVESGGGLVQAGGSLRLSCDDSGGIFGFYSMGWYRQAPGKERELVAAISGDGGSTYYADSVKGRFTISRDNATNTVYLQMNSLKPEDTAVYYCTAAFFTEYYQGDYWGQGTQVTVSS”, “low polyreactivity”; in that of “QVQLVESGGGLVQAGGSLRLSSAASGRTFFINAMGWYRQAPGKERDLVATITSGGITNYADSVKGRFTISRDNAKNTDYLQMNSLKPEDTAVYYCAVRWYGKYSGVRYYYWGQGTQVTVSS”, “high polyreactivity”. With “QVQLVESGGGLVQAGGSLRLSCAASGIISSVYAMGWYRQAPGKERELVAAISGSGGSTYYADSVKGRFTISRDNAKNTVYLQMNSLKPEDTAVYYCAIGYQYQGNSYGYWGQGTQVNVSS” the entry was “low polyreactivity”; with “QVQLVESGGGLVQAGGSLRLSCAASGSIFRKYTMGWYRQAPGKERELVAAISGTAGRTYYADSVKGRFTISRDNAKNTVYLQMNSLKPEDTAVYYCAARRFGGYGYNYWGQGTQVTVSS”, “high polyreactivity”; with “QFQLVESGGGLVQAGGSLRLSCAASGRIFFRNAMGWYIQAPGKETELVADNTNGGSTNYADSEKGRFTISRDNAKYTVYLQMNSLNPEDTAVYYCAADTLGVYDGDYWGQGTQVTVSS”, “low polyreactivity”. In the case of “QVQLVESGGGLVQAGGSLRLSCAASGRTFPSYAMGWYRQAPGKERELVAAITRGGSTNYADSVKGRFTISRDNAKNTVYLQMNSLKPEDTAVYYCAAARWRWQLARDDYWGQGTQVTVSS”, the “polyreactivity (PSR sort gate)” value was “high polyreactivity”. In the case of “QVQLVESGGGLVQAGGSLRLSCAASGITFLDNDMGWYRQAPVKERELVAAITSGVSTYYADSVKGRFTISRDNAKNTVYLQMNSLKPEDTAVYYCAADRPDVAGDYGGQGTQVTVSS”, the “polyreactivity (PSR sort gate)” value was “low polyreactivity”. In the case of “QVQLVDSGGGLVQAGGSLRLSCAPSGYIFPYNAMGWYRQAPGKEREFVAAITSSGGSTYYADSVKGRFTISRENAKNTVYLQMNSLKPEDTAVYYCARVPLHRYGYWGQGTQVNVSS”, the “polyreactivity (PSR sort gate)” value was “high polyreactivity”. In the case of “QVQLVESGGGLVQEGGSLRLSCAASGRIFTPYAMGWYRQAPGKERELVAVIRDGSTYYADSVKGRFTISRDNAKNTVYLQMNSLKPEDTAVYYCRYDIWVWWSGAYDYWGQGTQVTVSS” it was “low polyreactivity”. As to “QVQLVESGGGLVQAGGSLRLSCASSGFTFTLYARGWYRQAPGKEWELVAAINRSGGRTYYADSVKGRFTISRDNAKNTVYLQMNSLKPEDTAVYYCNKYPWPNYYDGEYDYWGQGTQVTVSS”, the “polyreactivity (PSR sort gate)” value was “high polyreactivity”. In the case of “QVQLVESGGGLVQAGGSLRLSCAASGRNSPSYAMGWYRQAPGKERELVAAISKRGGTTYYADSVKGRFTISRDNAKNTVYLQMNSLKPEDTAVYYCSARDYSHPTDDNYWGQRTQVTVSS” it was “high polyreactivity”; in that of “QVQLVESGGGLVQAGGSLRLSCAASGRILGKYAMGWYRQAPGKERELVAAIRLRGGSPYYADSVKGRFTISRDNAKNTVYLQMNSLKPDDTAVYYCAARYWDRSQAYNYWGQGTQVTVSS”, “high polyreactivity”; in that of “QVQLVESGGGLVQAGGSLRLSSAASGSIFYVYAMGWYRQAPGKERELVAAISRRGARTYYADSVKGRFTISRDNEKNTVYLQMNILKPEDTAVYYCYADQYHTVGYSAEYEYWGQGTQVTVSS”, “low polyreactivity”.
